Test results reported in paper PMC4773759 (Scientific Reports, 2016).
“Also recorded” adds a separate entry of the source.

How the values were obtained:
[1] = target: T1, rhECE-1 (Homo sapiens, UniProt P42892); experiment: Cleavage of endogenous Aβ42 in cerebrospinal fluid by activated ECE-1 (ELISA); type: biochemical; conditions: CGS35066 500 nM, rhECE-1 0.04 ng/μL, K49-P1-20 300 ng/μL, 4 h
T1 construct: purchased R & D systems
T1 sequence (P42892 1-770): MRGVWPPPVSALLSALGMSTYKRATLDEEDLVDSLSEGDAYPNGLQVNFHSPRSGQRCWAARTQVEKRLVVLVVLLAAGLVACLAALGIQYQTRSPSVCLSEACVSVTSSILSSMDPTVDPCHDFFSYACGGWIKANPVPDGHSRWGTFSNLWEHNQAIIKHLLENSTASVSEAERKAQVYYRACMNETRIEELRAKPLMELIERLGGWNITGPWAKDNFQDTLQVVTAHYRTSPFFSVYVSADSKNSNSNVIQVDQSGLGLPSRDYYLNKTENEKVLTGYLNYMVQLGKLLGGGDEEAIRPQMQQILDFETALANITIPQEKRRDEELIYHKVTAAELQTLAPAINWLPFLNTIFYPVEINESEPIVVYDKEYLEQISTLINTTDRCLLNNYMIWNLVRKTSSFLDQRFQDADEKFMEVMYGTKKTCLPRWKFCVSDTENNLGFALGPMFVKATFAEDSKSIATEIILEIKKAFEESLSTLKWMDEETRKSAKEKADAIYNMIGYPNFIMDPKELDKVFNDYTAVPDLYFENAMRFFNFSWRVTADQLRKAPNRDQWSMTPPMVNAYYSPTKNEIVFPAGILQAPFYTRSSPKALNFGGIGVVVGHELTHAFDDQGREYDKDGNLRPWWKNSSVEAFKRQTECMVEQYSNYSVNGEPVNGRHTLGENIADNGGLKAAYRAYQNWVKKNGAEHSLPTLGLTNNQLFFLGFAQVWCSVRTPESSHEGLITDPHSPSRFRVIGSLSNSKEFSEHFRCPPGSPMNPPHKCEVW
Procedure: Aβ42 levels were measured using a commercially available Human Aβ42 ELISA kit (Life technologies), according to the manufacturer’s instructions. rhECE-1 (0.04 ng/μL) alone, rhECE + K49-P1-20 (300 ng/μL) or rhECE + K49-P1-20 + CGS35066 (500 nM) was incubated at 37 °C for 1 hr. Cerebrospinal fluid (diluted 1:10 in assay buffer) from patients with Alzheimer’s disease was added to each reaction mixture. The final volume of cerebrospinal fluid added was kept to 1/10th the final volume of reaction mixture, which was adjusted using ECE-1 buffer. Aliquots of equal volume were taken at 0 and 4 h, snap frozen in dry ice and stored at −80 °C until analysed by ELISA. The amount of Aβ42 remaining after 4 h was expressed as a % of initial.

[2] = target: T1, rhECE-1; experiment: ECE-1 activity, bradykinin-based QFS assay; type: biochemical; conditions: 10 ng/μL, rhECE-1 0.05 ng/μL, 1 h pre-incubation 37 °C, QFS 40 μM; comparisons with K49-P1-20 or enzyme alone
Procedure: Enzyme activities were measured using a previously described bradykinin-based quenched fluorescent substrate (QFS) assay. Briefly, rhECE-1 or NEP (0.05 ng/μL) was incubated with ECE-1 buffer for 1 h at 37 °C. Where indicated, venom, B. asper myotoxin II or relevant synthetic peptide (10 ng/μL) was added to the reaction mixture and pre-incubated (1 h at 37 °C) with rhECE-1 or rhNEP prior to the addition of substrate ((7-methoxycoumarin-4-yl)acetyl-Arg-Pro-Pro-Gly-Phe-Ser-Ala-Phe-Lys(2, 4-dinitrophenyl); 40 μM final). The specificity of ECE-1 and NEP mediated cleavage was confirmed using the inhibitors CGS35066 (500 nM) and thiorphan (10 µM).
Increase in fluorescence over time (excitation and emission wavelengths of 320 and 405 nm respectively) was taken as evidence of enzyme activity. The specific activity for each enzyme was calculated using a standard curve of known 7-methoxycoumarin concentrations. Enzyme alone (rhECE-1, rhNEP, rhACE-2 and rhIDE) was used as a control in all studies examining the effect of K49-P1-20 on enzyme activity.
Non-linear regression analysis in GraphPad Prism software (version 6.04; Michaelis Menton equation) was used to calculate the enzyme kinetic parameters (Vmax and Km). In all enzyme assays the amount of substrate cleaved over 80 min was determined. Where indicated, enzyme activity in the presence of K49-P1-20 was expressed as a % of the respective control. The enzyme kinetic parameters were determined based on the rate of substrate cleavage.

[3] = test system: trypsin; experiment: trypsin mediated cleavage of K49-P1-20

Row | Compound | Stimulation of ECE-1 activity (in words) [2] | other results
1 | O=C(O)C(Cc1ccc2c(c1)oc1ccccc12)NCP(=O)(O)O (centres unmarked) [CGS35066] | – | Effect on the Aβ42 decrease by ECE-1 + K49-P1-20 in cerebrospinal fluid [1]: blocked
2 | B. asper myotoxin II | ECE-1 stimulation | –
3 | K49-P1-34: synthetic peptide corresponding to the N-terminal region of B. asper myotoxin II | mimicked the stimulator effects; also recorded: No significant difference | –
4 | K49-P9-34: synthetic peptide from the N-terminal region of B. asper myotoxin II | significantly less | –
5 | SLFELGKMILQETGKNPAKS | – | cleaved bond [3]: K7-M8
